Assay results: patent US20050153923A1, “Targeted drug delivery using EphA2 or EphA4 binding moieties” (priority 2003, published 2005)
“Also recorded” adds a separate entry of the source.

Key:
[1] = biological target: T1, EphA2-Fc (Homo sapiens, UniProt P29317); assay: Competitive ELISA: inhibition of labeled EA2 binding to EphA2-Fc; conditions: unlabeled antibody, increasing concentrations; FIG. 1
T1 construct: consisted of the extracellular domain of human EphA2 linked to human immunoglobulin
Method: The ability of labeled EA2 monoclonal antibody to bind EphA2-Fc was assayed by competitive ELISA in presence of either unlabeled monoclonal antibodies EA2 or Eph099B-208.261. Ratios of unlabeled to labeled antibody used in the assay are indicated on the x-axis.
Supernatants from bulk culture hybridomas were screened for immunoreactivity against EphA2 (Table 9, column 4) using standard molecular biological techniques (e.g., ELISA immunoassay). Supernatants were further screened for the ability to inhibit an EphA2 monoclonal antibody (EA2; ATCC deposit no. PTA-4380; see co-pending U.S. patent application Ser. No. 10/436,783, entitled “EphA2 Agonistic Monoclonal Antibodies and Methods of Use Thereof” filed May 12, 2003) from binding to EphA2. […] Additionally, many of the other antibodies could inhibit EA2 binding to EphA2 as well (Table 9, column 3).

[2] = tested on: cancer cells; assay: Elimination of cancer cell colonies already formed in soft agar (antibody added on third day); assay type: cell-based; conditions: data not shown
Excerpt: Assay methods were similar to those described above except that antibodies were not added to the cancer cells until the third day of growth in soft agar.

[3] = biological target: T1, EphA2-Fc; assay: BIACORE surface plasmon resonance Koff measurement on immobilized EphA2-Fc; assay type: binding; conditions: FIG. 15
Excerpt: FIG. 15: Kinetic analysis of EphA2 monoclonal antibodies. BIACORE™ (surface plasmon resonance-based) assays were used to assay the kinetics of EphA2 monoclonal antibody binding to immobilized EphA2-Fc.
The surface plasmon resonance-based BIACORE™ assay was used to measure the Koff rates of the monoclonal antibodies of the invention. IgG present in the hybridoma supernatant was used for measurement. Antibodies with Koff rates of approximately less than 3×10^−3 s^−1 have slow Koff rates. Antibodies with Koff rates of approximately 8×10^−4 s^−1 or less have very slow Koff rates. Antibodies with Koff rates of approximately 9×10^−5 s^−1 or less have ultra slow Koff rates.
EphA2-Fc was immobilize to a surface on a CM5 sensorchip using a standard amine (70 μl of a 1:1 mix of NHS/EDC) coupling chemistry. Briefly, a 400 nM solution of EphA2-Fc in 10 mM NaOAc, pH4, was then injected over the activated surface to a density of 1000-1100 RU's. Unused reactive esters were subsequently “capped” with a 70 μl injection of 1M Et-NH2. Similarly, an activated and “capped” control surface was prepared on the same sensor chip without protein to serve as a reference surface.
A 250 μl injection of each of the EphA2 hybridoma supernatants was made over both the EphA2-Fc and control surfaces, and the binding responses were recorded. These supernatants were used undiluted. […]

[4] = tested on: A549 lung cancer cells; assay: Tumor growth, A549 cells implanted subcutaneously into athymic mice; assay type: in vivo; conditions: 6 mg/kg i.p. twice a week for 3 weeks; FIG. 7C
Method: Total tumor volume was determined after sacrifice.

[5] = tested on: EphA2; assay: EphA2 tyrosine phosphorylation in MDA-MB-231 cells (IP/Western blot); assay type: cell-based; conditions: MDA-MB-231 monolayers; single dose 5 μg/ml, 37° C.
Method: Monolayers of MDA-MB-231 cells were incubated in the presence of a single dose of 5 μg/ml (A, C) Eph099B-208.261 or (B, D) EA2 for the indicated time at 37° C. Cell lysates were then immunoprecipitated with an EphA2-specific antibody, resolved by SDS-PAGE and subjected to Western blot analysis with a phosphotyrosine-specific antibody (A, B). The membranes were stripped and re-probed with the EphA2-specific antibody used in the immunoprecipitation as a loading control (C, D).
(§1) Monolayers of MDA-MB-231 cells were incubated in the presence of a single dose of 5 μg/ml Eph099B-233.152 at 37° C. Cell lysates were then immunoprecipitated with D7 (an EphA2-specific antibody), resolved by SDS-PAGE and subjected to Western blot analysis with (A) a phosphotyrosine-specific antibody or (B) an EphA2-specific antibody.
EphA2 antibodies promoted tyrosine phosphorylation and degradation of EphA2 in MDA-MB-231 cells. Monolayers of cells were incubated in the presence of EphA2 agonistic antibodies or control at 37° C. […]
(§2) Western blot analyses and immunoprecipitations were performed as described previously (Zantek et al., 1999, Cell Growth Diff. 10: 629-38, which is incorporated by reference in its entirety). […] Antibody binding was detected by enhanced chemiluminescence (Pierce, Rockford, Ill.) and autoradiography (Kodak X-OMAT; Rochester, N.Y.).

[6] = tested on: MDA-MB-231 tumor cells; assay: Inhibition of colony formation in soft agar; assay type: cell-based; conditions: single dose 5 μg/ml purified antibody, FIG. 5
Method: A single dose of 5 μg/ml of Eph099B-208.261 (black bar), EA2 (white bar) purified EphA2 antibodies or a negative control antibody, 1A7 (gray bar) were incubated with malignant MDA-MB-231 tumor cells for the indicated time at 37° C. in soft agar. Results are reported as colonies per high-powered field (HPF).
Briefly, cells were suspended in soft agar for 7 days at 37° C. in the presence of purified antibody or control solution (PBS). Antibodies were administered at the time of suspension in both bottom and top agar solutions. Colony formation was scored microscopically using an Olympus CK-3 inverted phase-contrast microscope outfitted with a 40× objective. Clusters containing at least three cells were scored as a positive.

[7] = tested on: MDA-MB-231 breast cancer cells; assay: Tumor growth and survival, MDA-MB-231 cells implanted subcutaneously into athymic mice; conditions: 6 mg/kg i.p. twice a week for 3 weeks vs PBS or 1A7; FIG. 7B, D
Method: MDA-MB-231 cells were implanted subcutaneously into athymic mice. […] Tumor growth was assessed and expressed as a ratio of the tumor volume divided by initial tumor volume (100 mm^3).
(D) MDA-MB-231 breast cancer cells were implanted subcutaneously into athymic mice. […] Total tumor volume was determined after sacrifice.
Briefly, 5×10^6 MDA-MB-231 breast cancer cells were implanted subcutaneously into athymic mice. […] Tumor growth was assessed and expressed as a ratio of the tumor volume divided by initial tumor volume (100 mm^3).
5×10^6 MDA-MB-231 breast cancer cells were implanted orthotopically or subcutaneously and 5×10^6 A549 lung cancer cells were implanted subcutaneously into athymic mice. […] Tumor growth was assessed and expressed either as a ratio of the tumor volume divided by initial tumor volume (100 mm^3) or as total tumor volume.

[8] = tested on: EphA2; assay: EphA2 degradation / protein level in MDA-MB-231 cells (Western blot); assay type: cell-based; conditions: MDA-MB-231 monolayers; single dose 5 μg/ml, 37° C.
Method: Monolayers of MDA-MB-231 cells were incubated in the presence of a single dose of 5 μg/ml (A, C) Eph099B-208.261 or (B, D) EA2 for the indicated time at 37° C. Cell lysates were then resolved by SDS-PAGE and subjected to Western blot analysis with an EphA2-specific antibody (A, B).
as §1
Monolayers of MDA-MB-231 cells were incubated in the presence of EphA2 agonistic antibodies at 37° C. Cell lysates were then resolved by SDS-PAGE and subjected to Western blot analysis with an EphA2-specific antibody (D7). […] Decreased EphA2 expression is due, in part, to deceased mRNA expression levels in response to EphA2 protein degradation caused by agonistic antibody binding (data not shown).
as §2

[9] = biological target: T2, EphA2-Fc (human, UniProt P29317 24-537); assay: competitive ELISA on EphA2-Fc, competitor labeled EA2
T2 construct: extracellular domain; also called fusion protein EphA2-Fc; not shown: human IgG1 constant region
T2 sequence (P29317 24-537): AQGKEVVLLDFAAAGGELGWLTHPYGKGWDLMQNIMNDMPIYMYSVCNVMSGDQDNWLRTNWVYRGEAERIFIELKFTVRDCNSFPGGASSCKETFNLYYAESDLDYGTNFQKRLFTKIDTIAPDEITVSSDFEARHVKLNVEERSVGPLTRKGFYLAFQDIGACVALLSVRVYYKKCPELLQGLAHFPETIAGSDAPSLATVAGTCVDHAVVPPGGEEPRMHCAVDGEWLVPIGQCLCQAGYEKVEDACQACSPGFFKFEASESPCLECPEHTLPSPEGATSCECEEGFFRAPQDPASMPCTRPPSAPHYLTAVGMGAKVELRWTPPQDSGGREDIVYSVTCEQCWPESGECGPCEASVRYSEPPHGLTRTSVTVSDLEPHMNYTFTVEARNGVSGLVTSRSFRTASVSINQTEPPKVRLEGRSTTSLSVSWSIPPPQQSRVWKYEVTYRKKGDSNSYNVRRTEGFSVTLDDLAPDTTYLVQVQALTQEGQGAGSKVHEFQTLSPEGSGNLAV

T1 sequence (P29317 24-537 limits assumed): as the sequence (P29317 24-537) above
Sequence of EphA2 (P29317 24-976): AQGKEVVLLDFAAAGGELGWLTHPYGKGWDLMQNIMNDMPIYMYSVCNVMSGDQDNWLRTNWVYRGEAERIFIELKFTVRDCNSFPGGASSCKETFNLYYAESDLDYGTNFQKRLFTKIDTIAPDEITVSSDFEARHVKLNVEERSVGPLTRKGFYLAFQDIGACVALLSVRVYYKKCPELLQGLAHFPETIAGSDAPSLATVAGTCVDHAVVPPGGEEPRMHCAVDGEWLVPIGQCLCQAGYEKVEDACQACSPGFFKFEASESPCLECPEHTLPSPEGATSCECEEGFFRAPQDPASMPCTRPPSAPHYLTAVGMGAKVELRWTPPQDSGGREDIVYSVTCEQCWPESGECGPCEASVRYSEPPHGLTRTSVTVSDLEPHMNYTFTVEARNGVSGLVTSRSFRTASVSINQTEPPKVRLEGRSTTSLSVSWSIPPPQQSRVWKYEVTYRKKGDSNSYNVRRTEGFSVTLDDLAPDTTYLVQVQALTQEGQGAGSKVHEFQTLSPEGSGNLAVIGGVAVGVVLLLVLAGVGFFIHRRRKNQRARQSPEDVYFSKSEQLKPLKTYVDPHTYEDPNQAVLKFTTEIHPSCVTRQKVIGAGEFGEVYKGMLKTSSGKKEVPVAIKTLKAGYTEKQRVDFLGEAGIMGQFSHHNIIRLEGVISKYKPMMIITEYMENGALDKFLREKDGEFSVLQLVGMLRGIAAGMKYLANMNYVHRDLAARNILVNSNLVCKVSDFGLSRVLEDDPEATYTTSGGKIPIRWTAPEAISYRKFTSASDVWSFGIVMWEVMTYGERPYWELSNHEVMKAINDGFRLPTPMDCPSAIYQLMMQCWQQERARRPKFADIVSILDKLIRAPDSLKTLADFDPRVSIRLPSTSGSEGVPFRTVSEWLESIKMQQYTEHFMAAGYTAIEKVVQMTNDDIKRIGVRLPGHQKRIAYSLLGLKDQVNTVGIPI

Koff rate compared with EA2 [3]: slower Koff rates than EA2
binding result [9]: binds
B1: Eph099B-208.261 (antibody, V domains shown)
VH: QVQLQQPGAELVKPGASVKLSCKASGYTFTSYWMHWVKQRPGQGLEWIGMIHPNSGSTNYNEKFKSKATLTVDKSSSTAYMRLSSLTSEDSAVYYCARGGNMVGGGYWGQGTTLTVSS
VL: QIVLTQSPALMSASPGEKVTMTCSASSSVSYMYWYQQKPRSSPKPWIYLTTNLASGVPARFSGSGSGTSYSLTISSMEAEDAATYYCQQWSSNPFTFGSGTKLEIR
notes: Mouse (SJL) hybridoma monoclonal antibody, ATCC PTA-4573
Competition with labeled EA2 for binding to EphA2-Fc [1]: could decrease the amount of labeled EA2 binding to EphA2-Fc; also recorded: can compete with EA2 for binding to EphA2
Effect on cancer cell colonies already formed in soft agar [2]: can kill cancer cells already growing in colonies in soft agar while other antibodies can slow or reduce cancer cell colony growth in soft agar
Tumor growth, A549 implanted subcutaneously [4]: inhibited
EphA2 tyrosine phosphorylation [5]: increased EphA2 phosphorylation; also recorded: promote EphA2 tyrosine phosphorylation in MDA-MB-231 cells
Colony growth / formation in soft agar [6]: inhibited colony growth in soft agar; also recorded: inhibit malignant tumor cell growth in soft agar
Tumor growth, MDA-MB-231 implanted subcutaneously [7]: inhibited; also recorded: inhibit tumor cell growth in vivo
EphA2 protein level (degradation) [8]: decreased EphA2 protein level; also recorded: promote EphA2 degradation in MDA-MB-231 cells
